Test [1] addresses T1, EGFRvIII (epidermal growth factor receptor variant III) over-expressed on the U87-EGFRvIII glioblastoma cell … (human, UniProt P00533 298-623).
T1 construct: The assay used cells over-expressing EGFRvIII (whole receptor on cells); EGFRvIII is its in-frame deletion of exons 2-7; also called de2-7EGFR; ΔEGFR
In words: radioligand saturation binding on U87-EGFRvIII cells, 2 h on ice, gamma counting, one-site non-linear fit. On the procedure:
(§1) 1. Cell lysate buffer was prepared using PBS with 1% Triton X-100 [0448] 2. Cell binding buffer was prepared using PBS with 0.5% BSA
(§2) This study followed the procedures described below: [0450] 1. Cell preparation: [0451] a. Harvest attached cells: recover sufficient, U87-EGFRvIII cells from T225 flasks using trypsin/EDTA and transfer to a 50 ml culture tube. Dispense a 50 μl sample of resuspended cells into an Eppendorf micro-tube and dilute with 50 μl of trypan blue. Fill a hemocytometer (10 μl) chamber and count the number of cells present. [0452] i. Count cells in four quadrants of the counting area. [0453] ii. Calculate cells/mL: count/4 quadrants×dilution factor×10⁴=cells/mL. [0454] b. Resuspend cells in medium to a final concentration of 3×10⁵ cells/ml. [0455] c. Plate 3×10⁵/1 mL U87-EGFRvIII into designated well of the 24-well plates and gently tap to evenly distribute cells (total 6 plates prepared-4 U87-EGFRvIII, 2 blanks) [0456] d. Incubate plates overnight at 37° C. and 5% CO₂. [0457] 2. Binding assay: [0458] Blocking agent was prepared as follows: 4500 μl as concentration of 4 μM; Final concentration of blocker 2 μM. [0459] For Conjugate A [0460] stock=7.58 mg/mL [0461] mg/ml=52.64 μM, add 342 μl [0462] Binding buffer: 4158 μl [0463] For Conjugate B [0464] stock=6.7 mg/mL [0465] mg/ml=46.53 μM, add 387 μl [0466] Binding buffer: 4113 μl [0467] a. Remove medium from two plates [0468] b. […]

The target in test [2] is T1, EGFRvIII (epidermal growth factor …). Kind of test: saturation binding of the 177Lu-labelled conjugate on U87-EGFRvIII cells, 2 h on ice, gamma counting; specific binding curve. How it is done: as §1, §2

Changes are numbered by the printed parent chain.

B1: Conjugate A ([177Lu]-Compound C-anti-EGFRvIII conjugate prepared from EGFRvIII antibody hH2-hL3) (antibody, V domains shown)
VH: QVQLQESGPGLVKPSQTLSLTCTVSGYSITSDYAWNWIRQPPGKGLEWIGYIGYNGRTSYNPSLKSRVTISRDTSKNQFSLKLSSVTAADTAVYYCARLGRGFAYWGQGTLVTVSS
VL: DIQMTQSPSSLSASVGDRVTITCHASQGINSNIGWLQQKPGKAFKGLIYHGTNLEDGVPSRFSGSGSGTDYTLTISSLQPEDFATYYCVQYAQFPYTFGQGTKLEIKR
modifications: [177Lu]-Compound C (DOTA chelate with PEG3 linker) conjugated to the antibody; attachment residues not stated; typical chelate to antibody ratios (CARs) of 3-4
notes: Radioimmunoconjugate as tested; also called [177Lu]-DOTA-anti-EGFRvIII; humanized variant of anti-EGFRvIII antibody 4E11
What is called Kd is a measure of binding affinity in units of concentration. Regarding B1, in test [1], binding was put at a Kd of 6.78 nM.

B2: Conjugate B ([177Lu]-Compound C-anti-EGFRvIII conjugate prepared from EGFRvIII antibody hH3-hL1) (antibody, V domains shown)
VH: B1 VH with I49M, V68I
VL: B1 VL with L36Y, F44P, G46L
modifications: [177Lu]-Compound C (DOTA chelate with PEG3 linker) conjugated to the antibody; attachment residues not stated; typical chelate to antibody ratios (CARs) of 3-4
notes: as for B1
As a reminder, the EC50 (read off the curve) is the concentration giving half of the maximal effect. Lower therefore signals greater potency. As for B2, the Kd in test [1] was 2.75 nM. The “EC50 (read off the curve)” value in test [2] is roughly 3 nM.
